Consider four molecules from paper doi:10.1101/2023.08.03.551877 (bioRxiv, 2023).

B1: Ume1 (natural protein)
chain: MSTLDIAEDNKIKNEEFKIWKKSIPSLYQHISSLKPIFGSGVDESPSTLRSIVFTNDSSCNKSKGVLSVPLLYSQGSEIFEVDCIVPLGLHYKKPESISEPLVQPDYTMESQKVEQTVLIPKWEFKGETIAKMIYVDNSEINVKVIALSTNGSLAWFREGVKSPVYTMMEPSTSLSSASSGNQNKPCVDFAISNDSKTLTVTKEKHLDNENATIKLIDNSGKIGEVLRTIPVPGIKNIQEIKFLNNQIFATCSDDGIIRFWGNEIGKKPLWILNDSLDGKTTCFAASPFVDTLFMTGTSGGALKVWDIRAVIALGDADAELNINQGHNKVNELFKVHHFYSEQVSKIEFSSISPMEVVTIGGLGNVYHWNFEPVFAIYNEIHEDFQGIISDELEAESMAFYHTEGCRREIGENNKVNTVAYHKYIEDLVATVDSDGLLTVYKPFTGKVLDGSREVGAAKS
B2: Rco1 (natural protein)
chain: MDTSKKDTTRSPSHSNSSSPSSSSLSSSSSKEKKRPKRLSSQNVNYDLKRRKIITSEGIERSFKNEHSNLAVEDNIPEEEPKELLEKDSKGNIIKLNEPSTISEDSKVSVTGLPLNKGPSEKIKRESLWNYRKNLGGQSNNSEMTLVPSKRFTQVPKNFQDLNRNDLKTFLTENMTEESNIRSTIGWNGDIINRTRDREPESDRDNKKLSNIRTKIILSTNATYDSKSKLFGQNSIKSTSNASEKIFRDKNNSTIDFENEDFCSACNQSGSFLCCDTCPKSFHFLCLDPPIDPNNLPKGDWHCNECKFKIFINNSMATLKKIESNFIKQNNNVKIFAKLLFNIDSHNPKQFQLPNYIKETFPAVKTGSRGQYSDENDKIPLTDRQLFNTSYGQSITKLDSYNPDTHIDSNSGKFLICYKCNQTRLGSWSHPENSRLIMTCDYCQTPWHLDCVPRASFKNLGSKWKCPLHSPTKVYKKIHHCQEDNSVNYKVWKKQRLINKKNQLYYEPLQKIGYQNNGNIQIIPTTSHTDYDFNQDFKITQIDENSIKYDFFDKIYKSKMVQKRKLFQFQESLIDKLVSNGSQNGNSEDNMVKDIASLIYFQVSNNDKSSNNKSASKSNNLRKLWDLKELTNVVVPNELDSIQFNDFSSDEIKHLLYLKKIIESKPKEELLKFLNIENPENQSE

Test in all cases: cryo-EM structure
Series [1] concerns the target Sin3 (S. cerevisiae, UniProt P22579 1-1536).
Series [2] deals with the molecule itself.
Series [3] concerns the target B2.
Series [4] concerns the target B1.

Chain of Sin3 (P22579 whole entry): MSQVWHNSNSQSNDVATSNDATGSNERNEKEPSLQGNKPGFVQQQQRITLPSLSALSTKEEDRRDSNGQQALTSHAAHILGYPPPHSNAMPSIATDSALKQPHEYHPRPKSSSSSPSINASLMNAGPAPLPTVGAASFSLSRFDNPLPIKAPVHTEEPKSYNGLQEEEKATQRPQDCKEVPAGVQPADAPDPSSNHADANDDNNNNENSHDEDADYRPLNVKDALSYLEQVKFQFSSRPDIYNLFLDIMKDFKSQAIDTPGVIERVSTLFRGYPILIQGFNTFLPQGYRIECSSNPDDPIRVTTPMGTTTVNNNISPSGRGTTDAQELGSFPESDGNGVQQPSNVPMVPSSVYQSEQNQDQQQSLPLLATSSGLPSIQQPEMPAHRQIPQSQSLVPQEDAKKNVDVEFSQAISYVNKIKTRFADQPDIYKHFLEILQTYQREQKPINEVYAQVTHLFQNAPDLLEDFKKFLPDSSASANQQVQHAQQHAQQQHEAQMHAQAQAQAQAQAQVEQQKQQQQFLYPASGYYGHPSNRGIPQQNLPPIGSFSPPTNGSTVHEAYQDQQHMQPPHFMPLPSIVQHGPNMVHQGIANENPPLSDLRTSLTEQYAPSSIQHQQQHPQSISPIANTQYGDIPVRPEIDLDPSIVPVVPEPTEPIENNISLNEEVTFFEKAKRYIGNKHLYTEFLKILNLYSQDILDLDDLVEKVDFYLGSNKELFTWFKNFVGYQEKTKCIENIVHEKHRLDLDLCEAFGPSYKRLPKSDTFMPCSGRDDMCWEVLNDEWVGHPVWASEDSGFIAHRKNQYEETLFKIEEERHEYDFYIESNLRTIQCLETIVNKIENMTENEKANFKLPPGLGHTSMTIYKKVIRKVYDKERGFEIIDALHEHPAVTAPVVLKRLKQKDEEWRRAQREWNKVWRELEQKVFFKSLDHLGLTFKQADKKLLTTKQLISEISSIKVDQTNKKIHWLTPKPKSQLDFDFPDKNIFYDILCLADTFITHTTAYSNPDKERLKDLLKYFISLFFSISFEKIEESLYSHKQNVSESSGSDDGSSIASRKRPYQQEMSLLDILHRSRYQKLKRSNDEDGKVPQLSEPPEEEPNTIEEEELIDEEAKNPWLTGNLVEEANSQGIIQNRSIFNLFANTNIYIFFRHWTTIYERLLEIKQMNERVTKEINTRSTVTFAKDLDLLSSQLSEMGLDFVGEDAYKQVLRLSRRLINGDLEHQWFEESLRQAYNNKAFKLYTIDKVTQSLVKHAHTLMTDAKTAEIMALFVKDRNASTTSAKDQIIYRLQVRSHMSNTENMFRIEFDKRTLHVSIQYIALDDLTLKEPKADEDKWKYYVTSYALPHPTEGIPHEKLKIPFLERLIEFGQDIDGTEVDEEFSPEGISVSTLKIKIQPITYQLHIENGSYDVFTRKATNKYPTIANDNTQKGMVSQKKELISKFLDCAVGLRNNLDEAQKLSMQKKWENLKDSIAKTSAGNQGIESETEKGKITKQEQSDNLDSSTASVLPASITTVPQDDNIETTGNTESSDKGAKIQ

Regarding B1, in series [1], the binding result is “binds”.

For B2, the binding result in series [1] and in series [2] was “binds” each time.

B3: Eaf3 (natural protein)
chain: MVDLEQEFALGGRCLAFHGPLMYEAKILKIWDPSSKMYTSIPNDKPGGSSQATKEIKPQKLGEDESIPEEIINGKCFFIHYQGWKSSWDEWVGYDRIRAYNEENIAMKKRLANEAKEAKKSLLEQQKKKKLSTSLGGPSNGGKRKGDSRSNASISKSTSQSFLTSSVSGRKSGRSSANSLHPGSSLRSSSDQNGNDDRRRSSSLSPNMLHHIAGYPTPKISLQIPIKLKSVLVDDWEYVTKDKKICRLPADVTVEMVLNKYEHEVSQELESPGSQSQLSEYCAGLKLYFDKCLGNMLLYRLERLQYDELLKKSSKDQKPLVPIRIYGAIHLLRLISVLPELISSTTMDLQSCQLLIKQTEDFLVWLLMHVDEYFNDKDPNRSDDALYVNTSSQYEGVALGM
On to B3, for which the binding result in series [3] and in series [4] was “binds” throughout.

B4: Rpd3 (enzyme)
chain: MVYEATPFDPITVKPSDKRRVAYFYDADVGNYAYGAGHPMKPHRIRMAHSLIMNYGLYKKMEIYRAKPATKQEMCQFHTDEYIDFLSRVTPDNLEMFKRESVKFNVGDDCPVFDGLYEYCSISGGGSMEGAARLNRGKCDVAVNYAGGLHHAKKSEASGFCYLNDIVLGIIELLRYHPRVLYIDIDVHHGDGVEEAFYTTDRVMTCSFHKYGEFFPGTGELRDIGVGAGKNYAVNVPLRDGIDDATYRSVFEPVIKKIMEWYQPSAVVLQCGGDSLSGDRLGCFNLSMEGHANCVNYVKSFGIPMMVVGGGGYTMRNVARTWCFETGLLNNVVLDKDLPYNEYYEYYGPDYKLSVRPSNMFNVNTPEYLDKVMTNIFANLENTKYAPSVQLNHTPRDAEDLGDVEEDSAEAKDTKGGSQYARDLHVEHDNEFY
With B4, the binding result in series [3] and in series [1] was “binds” throughout.
